According to US20110183922A1:

Molecular target: rat AChEt subunit (rat) (UniProt P37136)
Test: cell-based or functional assay

Sequence of rat AChEt subunit (rat) (P37136 32-614 limits assumed): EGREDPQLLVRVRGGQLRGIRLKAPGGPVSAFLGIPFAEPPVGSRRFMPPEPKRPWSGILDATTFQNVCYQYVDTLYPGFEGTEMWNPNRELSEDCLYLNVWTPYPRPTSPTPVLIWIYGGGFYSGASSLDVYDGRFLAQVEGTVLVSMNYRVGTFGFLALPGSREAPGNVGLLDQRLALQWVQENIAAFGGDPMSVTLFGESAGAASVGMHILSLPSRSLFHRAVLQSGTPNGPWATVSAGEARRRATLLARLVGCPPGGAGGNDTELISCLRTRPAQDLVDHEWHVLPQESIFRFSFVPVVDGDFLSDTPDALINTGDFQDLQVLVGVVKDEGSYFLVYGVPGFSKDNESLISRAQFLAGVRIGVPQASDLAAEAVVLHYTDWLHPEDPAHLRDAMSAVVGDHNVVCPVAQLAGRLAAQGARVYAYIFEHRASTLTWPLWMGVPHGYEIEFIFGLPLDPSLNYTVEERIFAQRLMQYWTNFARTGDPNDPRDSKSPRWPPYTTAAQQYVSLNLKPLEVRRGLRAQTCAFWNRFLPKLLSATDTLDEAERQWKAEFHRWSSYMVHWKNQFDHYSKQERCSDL

ColQ PRAD-GPI: PRAD encoding N-terminal domain of ColQ (Qn) linked to the C-terminal domain of the GPI-anchored AChE form
cell-associated AChE activity / tetramerization (velocity sedimentation, COS cells): 100 % increase
